Results from the Immune Epitope Database (IEDB).
Blank lines part the entries; values can stand above or below the sequence they belong to.

What was measured:
[1] = target: HLA-B*18:01; assay: IEDB peptide-MHC binding, purified MHC/competitive/radioactivity; filed as Kd, often an IC50 or EC50 that approximates it; ≥ and ≤ were set here for values at or beyond the usual limits of such assays
[2] = target: HLA-B*44:02; assay: as above
[3] = target: HLA-B*40:01; assay: as above
[4] = target: HLA-B*40:02; assay: as above
[5] = target: HLA-B*44:03; assay: as above
[6] = target: HLA-B*45:01; assay: as above
[7] = target: HLA-A*02:03; assay: as above; conditions: source organism: Homo sapiens
[8] = target: HLA-A*68:02; assay: as above; conditions: source organism: Homo sapiens
[9] = target: HLA-A*02:01; assay: as above
[10] = target: HLA-B*18:01; assay: IEDB peptide-MHC binding, purified MHC/competitive/fluorescence; filed as Kd, often an IC50 or EC50 that approximates it; ≥ and ≤ were set here for values at or beyond the usual limits of such assays; conditions: source organism: Araucaria virus
[11] = target: HLA-B*51:01; assay: as above; conditions: source organism: Araucaria virus
[12] = target: HLA-B*57:01; assay: as above; conditions: source organism: Araucaria virus
[13] = target: HLA-B*46:01; assay: as above; conditions: source organism: Araucaria virus
[14] = target: HLA-B*27:03; assay: as above; conditions: source organism: Araucaria virus
[15] = target: HLA-A*26:01; assay: as above; conditions: source organism: Araucaria virus
[16] = target: HLA-B*15:17; assay: as above; conditions: source organism: Araucaria virus
[17] = target: HLA-A*02:01; assay: IEDB peptide-MHC binding, purified MHC/direct/fluorescence; filed as Kd, often an IC50 or EC50 that approximates it; ≥ and ≤ were set here for values at or beyond the usual limits of such assays; conditions: source organism: Itapua hantavirus
[18] = target: HLA-A*03:01; assay: as above; conditions: source organism: Araucaria virus
[19] = target: HLA-B*51:01; assay: IEDB peptide-MHC binding, purified MHC/competitive/radioactivity; filed as Kd, often an IC50 or EC50 that approximates it; ≥ and ≤ were set here for values at or beyond the usual limits of such assays
[20] = target: HLA-B*53:01; assay: as above; conditions: source organism: Dengue virus 3 Martinique/1243/1999
[21] = target: HLA-B*35:01; assay: as above; conditions: source organism: Dengue virus 3 Martinique/1243/1999
[22] = target: HLA-A*01:01; assay: as above; conditions: source organism: Dengue virus 1 Brazil/97-11/1997
[23] = source organism: Mammarenavirus brazilense
[24] = source organism: Mammarenavirus choriomeningitidis
[25] = source organism: SARS coronavirus Tor2
[26] = source organism: Lymphocytic choriomeningitis virus (strain Traub)
[27] = source organism: Mammarenavirus lassaense

Sequence: ADMSKLISL
Kd [1, 23]: ≥ 77.5 µM
Kd [2, 23]: ≥ 36.9 µM
Kd [3, 23]: 17.4 µM
Kd [4, 23]: 0.287 µM
Kd [5, 23]: ≥ 33.6 µM
Kd [6, 23]: ≥ 77.7 µM

Sequence: AELLPDTTY
Kd [1, 24]: 1.16 µM
Kd [2, 24]: 0.353 µM
Kd [3, 24]: ≥ 43.3 µM
Kd [4, 24]: ≥ 40.4 µM
Kd [5, 24]: 0.52 µM
Kd [6, 24]: 7.85 µM

Sequence: AEVQIDRLIT
Kd [1, 25]: ≥ 25.9 µM
Kd [2, 25]: 1.66 µM
Kd [3, 25]: 1.24 µM
Kd [4, 25]: 0.0587 µM
Kd [5, 25]: 0.0905 µM
Kd [6, 25]: 0.157 µM

Sequence: DESASKSASV
Kd [1, 25]: 3.78 µM
Kd [2, 25]: 1.97 µM
Kd [3, 25]: 10.2 µM
Kd [4, 25]: 1.21 µM
Kd [5, 25]: 0.887 µM
Kd [6, 25]: 2.78 µM

Kd [7]: ≥ 27.6 µM
Kd [8]: ≥ 60 µM
Kd ([9]; source organism: Homo sapiens): ≥ 58.8 µM
Sequence: DMEISAYRKL

Sequence: EEKGISGTS
Kd [1, 26]: ≥ 77.5 µM
Kd [2, 26]: ≥ 34.1 µM
Kd [3, 26]: ≥ 53.8 µM
Kd [4, 26]: ≥ 45.4 µM
Kd [5, 26]: ≥ 78.1 µM
Kd [6, 26]: 2.22 µM

Sequence: FDAWFSQRGG
Kd [1, 25]: ≥ 70.5 µM
Kd [2, 25]: 9.75 µM
Kd [3, 25]: ≥ 69.6 µM
Kd [4, 25]: ≥ 70.8 µM
Kd [5, 25]: ≥ 32 µM
Kd [6, 25]: 0.36 µM

Sequence: FEKHILPFMS
Kd [1, 27]: ≥ 22.9 µM
Kd [2, 27]: ≥ 70.2 µM
Kd [3, 27]: ≥ 33.5 µM
Kd [4, 27]: 0.672 µM
Kd [5, 27]: ≥ 70.1 µM
Kd [6, 27]: ≥ 22.3 µM

Sequence: FELLNAPAT
Kd [1, 25]: 0.303 µM
Kd [2, 25]: 5.79 µM
Kd [3, 25]: 1.17 µM
Kd [4, 25]: 0.0111 µM
Kd [5, 25]: 6.13 µM
Kd [6, 25]: 0.392 µM

Sequence: FLAAECPFL
Kd [10]: ≥ 20 µM
Kd [11]: ≥ 20 µM
Kd [12]: ≥ 20 µM
Kd [13]: ≥ 20 µM
Kd [14]: ≥ 20 µM
Kd [15]: ≥ 20 µM
Kd [16]: ≥ 20 µM
Kd [17]: 0.0017 µM
Kd [18]: ≥ 20 µM

Sequence: FPQSNAPIQD
Kd ([19]; source organism: Dengue virus 3 Martinique/1243/1999): ≥ 69.6 µM
Kd [20]: 1.94 µM
Kd [21]: 1.11 µM

Sequence: FTQTAGPWHL
Kd ([19]; source organism: Dengue virus 1 Brazil/97-11/1997): ≥ 36.5 µM
Kd [22]: ≥ 23.5 µM

Sequence: GDEALRGFL
Kd [1, 23]: ≥ 50.9 µM
Kd [2, 23]: ≥ 47 µM
Kd [3, 23]: 7.01 µM
Kd [4, 23]: 0.826 µM
Kd [5, 23]: ≥ 36.1 µM
Kd [6, 23]: ≥ 43.7 µM

Sequence: GLSRYVAR
Kd ([9]; source organism: Hepatitis B virus): ≥ 50 µM

Sequence: IDFYLCFLAF
Kd [1, 25]: 1.56 µM
Kd [2, 25]: 0.097 µM
Kd [3, 25]: 0.839 µM
Kd [4, 25]: 16.7 µM
Kd [5, 25]: 0.0881 µM
Kd [6, 25]: 0.117 µM
